Results on 56 substances are retold here after patent US10064928B2, “Peptides and combination of peptides for use in immunotherapy against CLL and other cancers” (IMMATICS BIOTECHNOLOGIES GMBH, priority 2015, dated 2018).

The target of this assay is HLA-A*02:01 (Homo sapiens, UniProt P04439, D140Y/D185E/D98H/E176V/E277Q/G131W/G231S/I119V/I121R/I166T/I218V/L300P/L318F/N151K/N90K/P208A/P217A/Q86G/Q94H/R138H/R169H/T345S). Briefly: MHC binding assay (UV-ligand exchange, beta2m ELISA). As to conditions: binding of HLA-class I restricted peptides to HLA-A*02:01, β2m ELISA. The source says: Candidate peptides for T cell based therapies according to the present invention were further tested for their MHC binding capacity (affinity). The individual peptide-MHC complexes were produced by UV-ligand exchange, where a UV-sensitive peptide is cleaved upon UV-irradiation, and exchanged with the peptide of interest as analyzed. Only peptide candidates that can effectively bind and stabilize the peptide-receptive MHC molecules prevent dissociation of the MHC complexes. To determine the yield of the exchange reaction, an ELISA was performed based on the detection of the light chain (β2m) of stabilized MHC complexes. The assay was performed as generally described in Rodenko et al. (Rodenko et al., 2006).
96 well MAXISorp plates (NUNC) were coated over night with 2 ug/ml streptavidin in PBS at room temperature, washed 4× and blocked for 1 h at 37° C. in 2% BSA containing blocking buffer. Refolded HLA-A*02:01/MLA-001 monomers served as standards, covering the range of 15-500 ng/ml. Peptide-MHC monomers of the UV-exchange reaction were diluted 100 fold in blocking buffer. Samples were incubated for 1 h at 37° C., washed four times, incubated with 2 ug/ml HRP conjugated anti-β2m for 1 h at 37° C., washed again and detected with TMB solution that is stopped with […]. Absorption was measured at 450 nm. Candidate peptides that show a high exchange yield (preferably higher than 50%, most preferred higher than 75%) are generally preferred for a generation and production of antibodies or fragments thereof, and/or T cell receptors or fragments thereof, as they show sufficient avidity to the MHC molecules and prevent dissociation of the MHC complexes.
A general note: In an ELISA, binding on a coated surface is turned into a signal by an enzyme label.
For the substance “314 (LMKDCEAEV; listed as Homo sapiens) [compound 314]”, the “Peptide Exchange (MHC class I binding score, peptide exchange yield)” value (“Peptide Exchange” for short) is ““+++” (≥50 = +++)”.
As to “46 (YIIDSAQAV; listed as Homo sapiens) [compound 46]”, the “Peptide Exchange” value is on record as ““+++” (≥50 = +++)”.
With “181 (VLLSIPFVSV; listed as Homo sapiens) [compound 181]” the entry was ““+++” (≥50 = +++)”.
Take “20 (ALVDPGPDFVV; listed as Homo sapiens) [compound 20]”: the “Peptide Exchange” value was ““+++” (≥50 = +++)”.
With “158 (SLPEAPLDV; listed as Homo sapiens) [compound 158]” the entry was ““+++” (≥50 = +++)”.
The value for “153 (SLLAELHVL; listed as Homo sapiens) [compound 153]” was ““+++” (≥50 = +++)”; that for “189 (VMLEMTPEL; listed as Homo sapiens) [compound 189]” was ““+++” (≥50 = +++)”; that for “291 (ILLNEDDLVTI; listed as Homo sapiens) [compound 291]” was ““+++” (≥50 = +++)”.
The value for “294 (ALLDQLHTLL; listed as Homo sapiens) [compound 294]” was ““++++” (≥75% = ++++)”; that for “92 (ILEPLNPLL; listed as Homo sapiens) [compound 92]” was ““+++” (≥50 = +++)”; that for “356 (FLHDHQAEL; listed as Homo sapiens) [compound 356]” was ““++” (≥20% = ++)”.
Regarding “163 (SQLDISEPYKV; listed as Homo sapiens) [compound 163]”, the “Peptide Exchange” value is on record as ““+++” (≥50 = +++)”.
With “208 (ILLKTEGINL; listed as Homo sapiens) [compound 208]” the entry was ““+++” (≥50 = +++)”.
The value for “359 (FMQDPMEVFV; listed as Homo sapiens) [compound 359]” was ““+++” (≥50 = +++)”; that for “7 (ALLERTGYTL; listed as Homo sapiens) [compound 7]” was ““+++” (≥50 = +++)”.
With “103 (KLGGTPAPA; listed as Homo sapiens) [compound 103]” the entry was ““++” (≥20% = ++)”; with “63 (SLAHVAGCEL; listed as Homo sapiens) [compound 63]”, ““+++” (≥50 = +++)”; with “145 (SALDTITTV; listed as Homo sapiens) [compound 145]”, ““+++” (≥50 = +++)”.
Take “275 (VLLFIEHSV; listed as Homo sapiens) [compound 275]”: the “Peptide Exchange” value is ““+++” (≥50 = +++)”.
With “210 (KLLVQDFFL; listed as Homo sapiens) [compound 210]” the entry was ““+++” (≥50 = +++)”; with “44 (FLLSINDFL; listed as Homo sapiens) [compound 44]”, ““+++” (≥50 = +++)”.
The value for “161 (SMDDGMINV; listed as Homo sapiens) [compound 161]” was ““+++” (≥50 = +++)”; that for “326 (VLAFLVHEL; listed as Homo sapiens) [compound 326]” was ““++++” (≥75% = ++++)”.
With “278 (YLDDLLPKL; listed as Homo sapiens) [compound 278]” the entry was ““+++” (≥50 = +++)”; with “115 (LLFDKLYLL; listed as Homo sapiens) [compound 115]”, ““+++” (≥50 = +++)”; with “311 (LLVDVEPKV; listed as Homo sapiens) [compound 311]”, ““+++” (≥50 = +++)”.
“347 (YLGPVSPSL; listed as Homo sapiens) [compound 347]”: the “Peptide Exchange” value is reported as ““+++” (≥50 = +++)”.
With “193 (YLDLSNNRL; listed as Homo sapiens) [compound 193]” the entry was ““+++” (≥50 = +++)”; with “73 (GLLEVISALQL; listed as Homo sapiens) [compound 73]”, ““+++” (≥50 = +++)”.
The value for “295 (ALLQKLQQL; listed as Homo sapiens) [compound 295]” was ““+++” (≥50 = +++)”; that for “195 (YLGGFALSV; listed as Homo sapiens) [compound 195]” was ““++++” (≥75% = ++++)”; that for “250 (LLVQEPDGLMV; listed as Homo sapiens) [compound 250]” was ““+++” (≥50 = +++)”.
With “24 (AMAGDVVYA; listed as Homo sapiens) [compound 24]” the entry was ““+++” (≥50 = +++)”.
With “72 (GLLDAGKMYV; listed as Homo sapiens) [compound 72]”, the “Peptide Exchange” value is ““+++” (≥50 = +++)”.
As to “166 (TLDPNQVSL; listed as Homo sapiens) [compound 166]”, the “Peptide Exchange” value is reported as ““++” (≥20% = ++)”.
The value for “318 (NLQVTQPTV; listed as Homo sapiens) [compound 318]” was ““+++” (≥50 = +++)”.
The value for “330 (VLMWEIYSL; listed as Homo sapiens) [compound 330]” was ““+++” (≥50 = +++)”.
“98 (SLIKYFLFV; listed as Homo sapiens) [compound 98]”: the “Peptide Exchange” value is recorded as ““+” (≥10% = +)”.
With “40 (FLDEDDMSL; listed as Homo sapiens) [compound 40]” the entry was ““++” (≥20% = ++)”; with “42 (FLEEGGVVTV; listed as Homo sapiens) [compound 42]”, ““+++” (≥50 = +++)”; with “264 (TILDYINVV; listed as Homo sapiens) [compound 264]”, ““+++” (≥50 = +++)”.
The value for “123 (LLLAEAELLTL; listed as Homo sapiens) [compound 123]” was ““++” (≥20% = ++)”.
On to “143 (QLLDTYFTL; listed as Homo sapiens) [compound 143]”, for which the “Peptide Exchange” value was ““+++” (≥50 = +++)”.
The value for “159 (SLQEEKLIYV; listed as Homo sapiens) [compound 159]” was ““+++” (≥50 = +++)”; that for “74 (GLLRASFLL; listed as Homo sapiens) [compound 74]” was ““++” (≥20% = ++)”.
The value for “242 (ILLGIQELL; listed as Homo sapiens) [compound 242]” was ““+++” (≥50 = +++)”; that for “268 (TLLQVFHLL; listed as Homo sapiens) [compound 268]” was ““+++” (≥50 = +++)”; that for “95 (ILGYMAHEHKV; listed as Homo sapiens) [compound 95]” was ““++” (≥20% = ++)”.
With “226 (AMNISVPQV; listed as Homo sapiens) [compound 226]” the entry was ““+++” (≥50 = +++)”; with “207 (IIADLDTTIMFA; listed as Homo sapiens) [compound 207]”, ““+++” (≥50 = +++)”; with “139 (NLTDVVEKL; listed as Homo sapiens) [compound 139]”, ““+++” (≥50 = +++)”.
As to “109 (KLWEGLTELV; listed as Homo sapiens) [compound 109]”, the “Peptide Exchange” value is ““+++” (≥50 = +++)”.
The value for “246 (KLDETGVAL; listed as Homo sapiens) [compound 246]” was ““++” (≥20% = ++)”; that for “231 (FLYIRQLAI; listed as Homo sapiens) [compound 231]” was ““+++” (≥50 = +++)”; that for “184 (VLSHNLYTV; listed as Homo sapiens) [compound 184]” was ““+++” (≥50 = +++)”.
The value for “239 (ILAGEMLSV; listed as Homo sapiens) [compound 239]” was ““+++” (≥50 = +++)”.
